B1: T4WT12W (structured_DNA)
DNA: GGTTGGTGTGGTTGG
modifications: T4 and T12 = W, 5-(indolyl-3-acetyl-3-amino-1-propenyl)-2'-deoxyuridine (written T)

What follows are binders tested against human alpha-thrombin (Homo sapiens, UniProt P00734;P00734 328-363;364-622) (assay: BLI).
GGTTGGTGTGGTTGG (structured_DNA, T4 = W, 5-(indolyl-3-acetyl-3-amino-1-propenyl)-2'-deoxyuridine (written T)) [T4W] showed a Kd of 1 nM. Binder GGTTGGTGTGGTTGG (structured_DNA, T7 = W, 5-(indolyl-3-acetyl-3-amino-1-propenyl)-2'-deoxyuridine (written T)) [T7W] has a Kd of 1.7 nM. GGTTGGTGTGGTTGG (structured_DNA, none) [TBA] was tested, and the Kd was 2.8 nM. For GGTTGGTGTGGTTGG (structured_DNA, T3 = W, 5-(indolyl-3-acetyl-3-amino-1-propenyl)-2'-deoxyuridine (written T)) [T3W], the Kd was 3.9 nM. Work on GGTTGGTGTGGTTGG (structured_DNA, T12 = W, 5-(indolyl-3-acetyl-3-amino-1-propenyl)-2'-deoxyuridine (written T)) [T12W] yielded a Kd of 1.3 nM. Binder GGTTGGTGTGGTTGG (structured_DNA, T4 = K, 5-(methyl-3-acetyl-3-amino-1-propenyl)-2'-deoxyuridine (written T)) [T4K] has a Kd of 0.39 nM. Binder B1 has a Kd of 0.31 nM.

Source: article PMC5961234
